Where a chain is given by its changes, count along the chain named.
Key:
IL-4R on HEK-Blue cells [1] = biological target: T1, IL-4R on HEK-Blue cells (human, UniProt P24394 26-825); test: cell-based or functional assay
T1 sequence (looked up): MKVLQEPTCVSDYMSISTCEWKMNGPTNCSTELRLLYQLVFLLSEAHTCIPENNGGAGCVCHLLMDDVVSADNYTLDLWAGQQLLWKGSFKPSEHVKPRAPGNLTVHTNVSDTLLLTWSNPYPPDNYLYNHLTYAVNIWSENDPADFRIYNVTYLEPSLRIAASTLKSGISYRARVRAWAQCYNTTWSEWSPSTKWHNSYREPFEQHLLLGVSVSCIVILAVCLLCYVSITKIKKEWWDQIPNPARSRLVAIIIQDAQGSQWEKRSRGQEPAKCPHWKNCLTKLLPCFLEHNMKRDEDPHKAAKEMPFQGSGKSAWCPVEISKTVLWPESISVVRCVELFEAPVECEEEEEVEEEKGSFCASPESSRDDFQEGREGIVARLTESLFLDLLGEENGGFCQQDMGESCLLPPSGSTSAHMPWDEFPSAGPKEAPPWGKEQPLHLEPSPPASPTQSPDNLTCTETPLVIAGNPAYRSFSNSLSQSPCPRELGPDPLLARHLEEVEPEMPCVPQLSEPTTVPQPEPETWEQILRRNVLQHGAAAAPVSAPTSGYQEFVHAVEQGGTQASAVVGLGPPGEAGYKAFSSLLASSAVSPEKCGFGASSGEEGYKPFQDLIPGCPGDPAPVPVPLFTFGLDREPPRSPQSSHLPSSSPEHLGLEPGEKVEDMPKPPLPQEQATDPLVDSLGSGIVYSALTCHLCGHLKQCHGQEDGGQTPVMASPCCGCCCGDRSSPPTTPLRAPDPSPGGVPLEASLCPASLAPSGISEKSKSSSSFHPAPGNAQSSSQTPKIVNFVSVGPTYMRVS

IL-4R on HEK-Blue cells [2] = biological target: T1, IL-4R on HEK-Blue cells; test: cell-based or functional assay; remark: listed apart in the source
[3] = biological target: T2, recombinant cynomolgus monkey IL-4R (ECD with His-tag, Acro Biosystems) (cynomolgus monkey, UniProt A0A2K5V580 33-239); test: SPR (Biacore T200); antibody captured via anti-human IgG-Fc, cynomolgus IL-4R ECD-His as analyte; 1:1 Langmuir
T2 construct: extracellular domain; also called cynomolgus IL-4R; not shown: His tag
T2 sequence: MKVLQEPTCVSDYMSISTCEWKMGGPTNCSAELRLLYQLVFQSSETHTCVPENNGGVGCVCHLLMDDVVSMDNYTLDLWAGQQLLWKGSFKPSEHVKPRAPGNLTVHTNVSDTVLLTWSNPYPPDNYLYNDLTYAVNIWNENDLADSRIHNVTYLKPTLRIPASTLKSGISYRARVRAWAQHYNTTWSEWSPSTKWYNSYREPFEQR

[4] = biological target: T3, recombinant human IL-4R protein (ECD with His Tag, Sino Biological) (human, UniProt P24394 26-232); test: SPR (Biacore T200); antibody captured via anti-human IgG-Fc, human IL-4R ECD-His as analyte; 1:1 Langmuir
T3 construct: extracellular domain; also called human IL-4R ECD; not shown: His tag
T3 sequence (looked up): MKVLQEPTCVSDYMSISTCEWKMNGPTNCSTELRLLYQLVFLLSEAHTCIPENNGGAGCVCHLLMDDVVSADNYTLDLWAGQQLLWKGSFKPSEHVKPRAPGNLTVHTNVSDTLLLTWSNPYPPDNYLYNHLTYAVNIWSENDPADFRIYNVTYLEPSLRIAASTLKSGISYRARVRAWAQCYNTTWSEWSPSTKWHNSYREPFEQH

IL-4R on HEK-Blue cells [5] = biological target: T1, IL-4R on HEK-Blue cells; test: cell-based or functional assay; remark: listed apart in the source

B1: PRO2198 (bispecific antibody)
chain 1: DIQMTQSPSSLSARVGDRVTITCQASEDIESYLAWYQQKPGKAPKLLIYRASTLAYGVPSRFSGSGSGRDFTLTISSLQPEDFATYYCLGSSYSTGSNIFGQGTKVEIKRTVAAPSVFIFPPSDEQLKSGTASVVCLLNNFYPREAKVQWKVDNALQSGNSQESVTEQDSKDSTYSLSSTLTLSKADYEKHKVYACEVTHQGLSSPVTKSFNRGEC
chain 2: not shown
neutralize human IL-13 induced signaling in the stat-6 reporter gene assay: Mean IC50 [pM] (IL-4R on HEK-Blue cells [1]): 22.1 pM | neutralize human IL-4-induced signaling in the stat-6 reporter gene assay: Mean IC50 [pM] (IL-4R on HEK-Blue cells [2]): 23.9 pM

B2: PRO2199 (bispecific antibody)
chain 1: not shown
chain 2: B1 chain 1 with R14S, R69T
neutralize human IL-13 induced signaling in the stat-6 reporter gene assay: IC50 [pM] (single analysis) (IL-4R on HEK-Blue cells [1]): 11.3 pM | Kd [3]: 0.0351 nM | koff [3]: 3.44e-05 s⁻¹ | kon [3]: 980000 M⁻¹ s⁻¹ | Kd [4]: 0.197 nM | koff [4]: 5.76e-05 s⁻¹ | kon [4]: 293000 M⁻¹ s⁻¹ | neutralize human IL-4-induced signaling in the stat-6 reporter gene assay: Mean IC50 [pM] (IL-4R on HEK-Blue cells [2]): 11.5 pM

B3: PRO1517 (scFv)
chain: DIQMTQSPSSLSASVGDRVTITCQASEDIESYLAWYQQKPGKAPKLLIYRASTLAYGVPSRFSGSGSGTDFTLTISSLQPEDFATYYCLGSSYSTGSNIFGTGTKVTVLGGGGGSGGGGSGGGGSGGGGSEVQLVESGGGLVQPGGSLRLSCAASGFSSSSAHYMCWVRQAPGKGLEWIGCIYAGSRGSTYYASWAKGRFTISRDNSKNTVYLQMNSLRAEDTAVYYCARAAFVNRGVSWIWPYYFSLWGQGTLVTVSS
Neutralization of hIL-4-induced signaling in reporter gene assay: IC50 (IL-4R on HEK-Blue cells [5]): 1.44 ng/mL | Neutralization of hIL-13-induced signaling in reporter gene assay: IC50 (IL-4R on HEK-Blue cells [5]): 1.83 ng/mL

B4: PRO1535 (scFv)
chain: B3 chain with A43P, V132S, G180A, R204K, Y227F
Neutralization of hIL-4-induced signaling in reporter gene assay: IC50 (IL-4R on HEK-Blue cells [5]): 1.15 ng/mL | Neutralization of hIL-13-induced signaling in reporter gene assay: IC50 (IL-4R on HEK-Blue cells [5]): 2.3 ng/mL
